This is an account of results in PMC4975481.

Substitutions are numbered along the chain they refer to.

The test deals with Ebola virus nucleoprotein, recombinant construct consisting of the C-terminal portion of NP (Ebola virus (EBOV; formerly the Zaire ebolavirus)). Briefly: SPR; ProteOn XPR36; […] (10 mM acetate pH 5.0); […]; Langmuir model.
Sequence of Ebola virus nucleoprotein, recombinant construct consisting of the C-terminal portion of NP (Ebola virus (EBOV; formerly the Zaire ebolavirus)) (P18272 641-739 limits assumed): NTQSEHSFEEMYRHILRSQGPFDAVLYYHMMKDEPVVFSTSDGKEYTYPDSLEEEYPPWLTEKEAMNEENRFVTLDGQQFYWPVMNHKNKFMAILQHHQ

B1: DSTL096 (VHH)
VHH: RVDQTPRSVTKETGESLTINCVLRDASYAVGSTCWYRKKSGSTNEESISKGGRYVETVNSGSKSFSLRINDLTVEDGGTYRCGVSTYNWCGVRGLGCVHGACGDGTAVTVN
Regarding B1, the Kd came out at 0.39 nM.

B2: SK to RI (VHH)
VHH: TRVDQTPRTATKETGESLTINCVLRDASYAVGSTCWFRKNPGTTDEERISIGGRYVESVNKGAKSFSLRIKDLTVADSATYYCGVSTYNWCGVRGLGCVHGACGDGTALTVK
Turning to B2, the Kd was found to be 22 nM.

B3: ES to WR (VHH)
VHH: B2 VHH with E46W, I51K
With B3, the Kd amounted to 12 nM.

B4: SP15-096-13 (VHH)
VHH: B2 VHH with E46W
With B4, the Kd stood at 27 nM.

B5: S to R (VHH)
VHH: B2 VHH with I51K
For the molecule B5, the equilibrium dissociation constant (Kd) came out at 2.3 nM.

B6: K to I (VHH)
VHH: B2 VHH with R48S
For B6, the dissociation constant Kd came to 2.2 nM.

B7: SP15-096-123 (VHH)
VHH: B2 VHH with R48S, I51K
Regarding B7, the Kd is 0.37 nM.

B8: EK to WI (VHH)
VHH: B2 VHH with E46W, R48S
With B8, the Kd came to 3.6 nM.

B9: E to W (VHH)
VHH: B2 VHH with E46W, R48S, I51K
On to B9, for which the Kd was found to be 0.34 nM.

A word on the Kd: it is the free concentration of one partner at which half of the binding sites on the other are occupied at equilibrium, for simple one-to-one binding.
